The nature of this data set: soluble on expression in E. coli; label from the status in PepcDB or PDB records.
As to “MIILQANKIERSFAGEVLFDNINLQVDERDRIALVGKNGAGKSTLLKILVGEEEPTSGEINKKKDISLSYLAQDSRFESENTIYDEMLHVFNDLRRTERQLRQMELEMGEKSGEDLDKLMSDYDRLSENFRQAGGFTYEADIRAILNGFKFDESMWQMKIAELSGGQNTRLALAKMLLEKPNLLVLDEPTNHLDIETIAWLENYLVNYSGALIIVSHDRYFLDKVATITLDLTKHSLDRYVGNYSRFVELKEQKLVTEAKNYEKQQKEIAALEDFVNRNLVRASTTKRAQSRRKQLEKMERLDKPEAGKKSANMTFQSEKTSGNVVLTVENAAVGYDGEVLSQPINLDLRKMNAVAIVGPNGIGKSTFIKSIVDQIPFIKGEKRFGANVEVGYYDQTQSKLTPSNTVLDELWNDFKLTPEVEIRNRLGAFLFSGDDVKKSVGMLSGGEKARLLLAKLSMENNNFLILDEPTNHLDIDSKEVLENALIDFDGTLLFVSHDRYFINRVATHVLELSENGSTLYLGDYDYYVEKKATAEMSQTEEASTSNQAKEASPVNDYQAQKESQKEVRKLMRQIESLEAEIEELESQSQAISEQMLETNDADKLMELQAELDKISHRQEEAMLEWEELSEQV”, the “soluble on expression in E. coli” value is listed as “not soluble”.

As for “MAHHHHHHMWHTTVMVPTQHWGAVGYFPAIVTRPSQLNFSGSYDPVAWSGPPSYPGQFAAGNRRQLGQQEQYRQPYSNYHNRPQPHRQMHAQPPYMAHRMTVNAVTYGFGDPTLGVYRTSADGWKYRGAYGGGRRPSPPFQAMVTRPLVSSNGRRRRGTHARANMAGGWGDLDTYDLYAFEAGENLDVDNMSYEELLELTERLGMVERGVQPARLNELRVVITPTHVKQQLESDRMVAGRNGLVKGGANIDQEEKEANEKMCEEDPIKCCICLDGVLVGQTATRMPCCRNFLHASCAAPWFV”, the “soluble on expression in E. coli” value is reported as “not soluble”. The entry for “MGSDKIHHHHHHMGPINFEKAKKEREQAVIARLIDIRKAQQEYRSLHHGMYTEHFDTLIDFVKNQKLPFVMKVGQLTDDQLESGLTEKKAMAIINKAKKTGKYDEVKKNGLENFKRDTMWVAVMDTIYPKGFNADSMKYIPYGNGAIFEMNVKNDTAKSGAPVYLFEVKAPYETYLGGLDRQEIINLKDLNEKLGRYSGLMVGSIDNPNNGAGNWE” is “not soluble”; for “MGHHHHHHSHMITREEIANVLDQPVYDGDGNKIGDAKHVFFDDMTGRPEWVSVKTGMFGSTESFVPIRDAALVQDHLEVPYGKDQVKGAPSVDVDAGGHLSETEEHRLYDYYGINWDSVLSEAERTDDDRFAAGPGTAGAAGTAGAAGLAGTAGAAGAAGTAGGRTGREDAMRREGMRGDEGAMRREGMRGDEAMTRSEEQMHIGVERHESGRARLRKYVVTEEVQQTVPVTHEEVRVVREPITDANRDEALAGPEISEAEHEVTLHAERPVVETETVPVERVRMTTEELTENETVRGQVRKERIEAETESFTEGETKNARDDKRRGGK” it is “soluble”; for “MRGSHHHHHHGMASHITYDLPVAIEDILEAKKRLAGKIYKTGMPRSNYFSERCKGEIFLKFENMQRTGSFKIRGAFNKLSSLTEAEKRKGVVACSAGNHAQGVSLSCAMLGIDGKVVMPKGAPKSKVAATCDYSAEVVLHGDNFNDTIAKVSEIVETEGRIFIPPYDDPKVIAGQGTIGLEIMEDLYDVDNVIVPIGGGGLIAGIAIAIKSINPTIKVIGVQAENVHGMAASYYTGEITTHRTTGTLADGCDVSRPGNLTYEIVRELVDDIVLVSEDEIRNSMIALIQRNKVITEGAGALACAALLSGKLDSHIQNRKTVSIISGGNIDLSRVSQITGLVDA” it is “soluble”. With “MAHHHHHHMSSYDAMSAVSSNGAVMPEINLHPRLMTHRPESDSYTGSARHSSRSTRAVPTNAELAYAGVTAQDGVVQQLSSRSEERGSLAGPREVSAQSNSGHRALRAITACGSIDEPLQLSEPHQGRAIRDTPREQKPQQHQSQPTRSISHGVVARNAAGAGSSREPIRPGRSSCSSTPRIPSKHNDPYAHVTSVVQEYRQSRINALEAQYRVAHTHSNTSVSQGYDTRQSQSASPRSLEARRNASAHSRASARPRDGSWRMSSVSSRTRQNSPLPRAVEEEYLRGGVPRAALDAPHIRYAEALYNMYNSSSSSARRLACMSSMSSNMTTEYVPDVAKRIPDRFKYVPPTEEERRLHREATLRALEEWRRRQCARENAHCKGSEDMAAGGAAVELRNRNPPKNQSGTRSQQPQQAGHEEAAAWALQKGFDNTSDSFSGQARDSFTPSKKCSARKAKKIRSAAEQRDDYPTNEGAGEWERPQSSVGKRSGTLISRRQNGAGLRASSRKGRKSPTESARVEDGMKLNSFREKLLFDIAPPTVSIA” the entry was “not soluble”; with “MSEQSICQARASVMVYDDTSKKWVPIKPGQQGFSRINIYHNTASSTFRVVGVKLQDQQVVINYSIVKGLKYNQATPTFHQWRDARQVYGLNFASKEEATTFSNAMLFALNIMNSQEGGPSTQRQVQNGPS”, “soluble”.

For “MQPVLVFKLTADFREDPDPRKVNLGVGAYRTDDCHPWVLPVVKKVEQKIANDNSLNHEYLPILGLAEFRSCASRLALGDDSPALKEKRVGGVQSLGGTGALRIGADFLARWYNGTNNKNTPVYVSSPTWENHNAVFSAAGFKDIRSYRYWDAEKRGLDLQGFLNDLENAPEFSIVVLHACAHNPTGIDPTPEQWKQIASVMKHRFLFPFFDSAYQGFASGNLERDAWAIRYFVSEGFEFFCAQSFSKNFGLYNERVGNLTVVGKEPESILQVLSQMEKIVRITWSNPPAQGARIVASTLSNPELFEEWTGNVKTMADRILTMRSELRARLEALKTPGTWNHITDQIGMFSFTGLNPKQVEYLVNEKHIYLLPSGRINVSGLTTKNLDYVATSIHEAVTKIAENLYFQSHHHHHHDYKDDDDK”, the “soluble on expression in E. coli” value is “soluble”. With “MGSDKIHHHHHHMDVFSDRVLLTEESPIRKLVPFAEMAKKRGVRIHHLNIGQPDLKTPEVFFERIYENKPEVVYYSHSAGIWELREAFASYYKRRQRVDVKPENVLVTNGGSEAILFSFAVIANPGDEILVLEPFYANYNAFAKIAGVKLIPVTRRMEEGFAIPQNLESFINERTKGIVLSNPCNPTGVVYGKDEMRYLVEIAERHGLFLIVDEVYSEIVFRGEFASALSIESDKVVVIDSVSKKFSACGARVGCLITRNEELISHAMKLAQGRLAPPLLEQIGSVGLLNLDDSFFDFVRETYRERVETVLKKLEEHGLKRFTKPSGAFYITAELPVEDAEEFARWMLTDFNMDGETTMVAPLRGFYLTPGLGKKEIRIACVLEKDLLSRAIDVLMEGLKMFCSSRISC” the entry was “soluble”; with “MGSSHHHHHHSSGLVPRGSHMAKVNAFSKKIGWIEFITGPMFAGKTAELIRRLHRLEYADVKYLVFKPKIDTRSIRNIQSRTGTSLPSVEVESAPEILNYIMSNSFNDETKVIGIDEVQFFDDRICEVANILAENGFVVIISGLDKNFKGEPFGPIAKLFTYADKITKLTAICNECGAEATHSLRKIDGKHADYNDDIVKIGCQEFYSAVCRHHHKVPNRPYLNSNSEEFIKFFKNKKRNKNI”, “soluble”. The entry for “MSLFYEEVFSDLKEEEKALLEFISSGNLEIDRKLEGGVPVGSLCLLEGGNDSGKSIFLQQIMWGALNQDKRVLALATEKTSKELLNQMESLKHGISDYFIIGRAKIFEINAGYVEENPQLSESLLQVLLECIKRCKEELILIDSLTIFAVNASENAVLNFFTECVKLCDNGKTILISVHGYAFSQSVLYRLRSVCSVCLELRIEQVGDQWIKTMEIQKLRGARKTRGNLLSFDVDSKFGLKIIPVSKVKAEGHHHHHH” is “soluble”; for “MNRLQGMELFVEVARTLSFGRAAENLAIPKSTLSRQVAELERSVGLRLLSRTTRRVELTEAGQLYFERCQRIVAEARIAHEELQNLVETPSGPLRVNMPADFGTDFLSEAFTEFSRRYPEVTFYLDLASPEHAERVFQTCDVSIEIGDLPDSTHIARLLGVLPAHLYASPDYLARHGEPQHPDDLPRHECIQFRAGTGRVTRWPLNSGERHVEITPGNRFSVNSVSMVRNLATLGAGIAILAPMGNVREDIESGRLKRILPDWLAGPFPVYAVTDTRMLPAKTRIFVEFLMERLSNKTLAGQNNPAFLNLR” it is “not soluble”.

For “MNRVEPPYDVKEALVFTQKMAQLSKALWKSIEKDWQQWLKPYDLNINEHHILWIAYQLNGASISEIAKFGVMHVSTAFNFSKKLEERGYLRFSKRLNDKRNTYVQLTEEGTEVFWSLLEEFDPTRNAVFKGSQPLYHLFGKFPEVAEMMCMIRHIYGDDFMEIFETSLTNIDNDFESVNGKLKKKAKDSAADEPAEELEPVNS”, the “soluble on expression in E. coli” value was “soluble”. The entry for “SPGNRENKEKKVFISLVGSRGLGCSISSGPIQKPGIFISHVKPGSLSAEVGLEIGDQIVEVNGVDFSNLDHKEAVNVLKSSRSLTISIVAAAGRELFMTDR” is “soluble”; for “MGYKELLLECQKLLNEGDFEGMIKKLEELSKMEPSSKEEAEESLKLLDFLIEEVKKRQEEIFNKMVNYQKFKNYLR” it is “not soluble”; for “ATHTAQTQTHLNFTQIKTVDELNQALVEAKGKPVMLDLYADWCVACKEFEKYTFSDPQVQKALADTVLLQANVTANDAQDVALLKHLNVLGLPTILFFDGQGQEHPQARVTGFMDAETFSAHLRDRQPHHHHHH” it is “soluble”. With “MSLHLSKGFSNMIGVVLPTVNLPYFAELIAGIADAAAESGVHLSLFQTNYEVQKEIFALSQLKQRQVDGLIFCSKALADEKLMEWEGPILLCQNSDNARFPTISIPHQEAFRNGLDYLIAKGHKKIAICLARKKGMNSHFRIKAYKEALEEIGEAFREDWVIEKAITINDGKALFHKWNTWKEKPTAIFVANDQVSAGLFLEAKNQRVSVPDELAILSVDNHEISQALGITTIDIQTREMGKQAFAILEKRIQGQPIERKVLDYRLIERSTVEGHHHHHH” the entry was “soluble”; with “GSSHHHHHHSFFFLSFHISNLQFNSSLEDPSTDYYQELQRDISEMFLQIYKQGGFLGLSNIKFRPG”, “soluble”. With “MAFRVSVRLARDTFCLSDTVEGSVAVDVEGTSHDVAAAAPSAVRVALRAVEEAGKRHAIEHMALVTTVAGPSTAHEEAAAAALRESVNRFTTEAARRHPLLGVPVSTDSTMLVEGAASEHYTYSAGAGAASNPGGVTSETATSPPQRWEAGGHYVYPFALQLPPWLPPSYYYKPSAVKSHMSMRYTVAAFVVCGVEEADVDVVPREFRLQMTVLVPCTPLPAKAWRGSSCTSDGGAEGADKRGTCASAPLLSPVRFLLPAEIPQLLERLPAAQLVDFTVLSALPKRELQQCVERVSISPPFREKLTYHIYKYSLVLRGLLRNKPYTAVDVCITYDSGAAVLLCGRQQSVVRGGVALGLAAPHGNDSGDAPAALSSAGSGVAPGGLTVMGTVVGGEYSRAPRIHTDNHGMAPSPLGKRARGRQSPAAADPHTGDSANSLWRDGEGAGGSQLSALSACTEPAINGALRLHVRVRTGSVAVSKVRVKLLERVRCTSAPATQPNDVYTLATYTHSEKIHANTSTEFPIELALPKQFRHIAADNEKYPPPAGITTAAVHTTTWLQITFPSLHAVSEAQLAENVVLVGEDVDLTDTVPFLPCACPVRTL” the entry was “not soluble”; with “MPKSFYFCKTLERLTLSDKILVDVPCQVSLPSLRELDLFCVVYKDEDSHVKLLSSCPVLKHLKVTRNRRVEDNVRTFRVEVPSLLRLDYKAGMMFREDSDMSDPFLVTDTPNLLSLHIFDTVGYSLSVWYMPHLVTVVTDELFPSEKFMRPLSSVKYLALSPFDTMVPWCDAVNNYSRLVECMIHLSEYDLLESLLVLLSKCSKLKVFLVDSDIPRWNHDPALWNQPSSIPRCLSSHLEIFEWDGYVGREDEKKIIRYILENSKYLKTAGISPNSTFSGEEKQKMEELESMHRTPTSVLLSSARMSFRY”, “not soluble”.

The values are drawn from the DeepSol protein solubility set.
